Laboratory results reported in the supplement of paper PMC12764529.
± gives the half width of the 95% confidence interval.

Key:
[1] = folding stability dG unfold from trypsin proteolysis; higher = more stable
How it was run: (§1)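 Digests were run with trypsin and chymotrypsin at 11 concentrations in threefold dilutions, plus a no-protease condition, on designed mini-proteins in a PA-tagged cDNA display construct. The mini-proteins were under 80 residues, had no cysteine, and were kept only when AlphaFold2 dimer inter-PAE was above 15. After sequencing, Bayesian fitting of the counts gave K50, from which unfolding free energy was derived against a sequence-predicted unfolded-state K50 and a shared folded-state K50, per protease or combined.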

[2] = folding stability dG unfold from chymotrypsin proteolysis; higher = more stable
How it was run: as §1

[3] = folding stability dG unfold (combined trypsin and chymotrypsin); higher = more stable
How it was run: as §1

Sequence	folding stability dG unfold [1]	folding stability dG unfold [2]	folding stability dG unfold [3]
SAGGSAEKPPYVIRLEITVKGPGKKVKLDILVDSPEELEAVIQALKDLGFTDIEPKIETFPLEELDSAGGSA [r15_1015_TrMRF]	1.63 ± 0.12 kcal/mol	2.42 ± 0.11 kcal/mol	2.18 ± 0.17 kcal/mol
SAGGKTVEIKVKVKSLEELKAAIEALKKAGIKDVKVTKIELEKNEDGSLYARVTIEVEPAPEVVEEKESAGG [r13_174_TrROS_Hall]	2.78 ± 0.095 kcal/mol	3.08 ± 0.073 kcal/mol	3.15 ± 0.2 kcal/mol
SAGMTSVEKRTLTFETEEEAEKEIKKIADELKKKGYKTEVKIEEVTKEKTEKGDSRYKVTATMKITKKESAG [r5_158_JUSTAS]	0.681 ± 0.074 kcal/mol	0.792 ± 0.14 kcal/mol	0.76 ± 0.17 kcal/mol
SAGGSAGGSKKIIRFKTKEEAEEALKKAKPGETLEITLPNGEKIEVKVTKVERVDGYYYIEVESAGGSAGGS [r12_907_TrROS_Hall]	2.53 ± 0.08 kcal/mol	3.44 ± 0.077 kcal/mol	3.13 ± 0.07 kcal/mol
SAGGPLQIKVEPLNRDPKDGKREVRIEITFPEEDMKKNPENRQLAEYIAKSLAKEPGADKVEVDIHWSAGGS [r16_416_TrROS]	-0.0287 ± 0.056 kcal/mol	0.441 ± 0.081 kcal/mol	0.274 ± 0.095 kcal/mol
SAGGQKTETFEFAFRKPDGSLYLVKITLIEKLPNEPNVYIAKVEVYKLNLVTGKPEKVGEFEVLLNLSAGGS [r8_65_TrMRF]	3.4 ± 0.13 kcal/mol	5.04 ± 0.15 kcal/mol	4.96 ± 0.14 kcal/mol
SIKIERDGDKIKITFKVPGPFRIMIFNNDEIQETTIPPGKPVKIEIDIPKGNFYIMIYFPGKPLAQIPFKSA [r9_411_TrROS]	2.27 ± 0.19 kcal/mol	1.96 ± 0.17 kcal/mol	2.19 ± 0.31 kcal/mol
SMTEELVIDFPDGVKATVRRFGDGEVTITIDWPTDNPELRKKGGIKALVDAIAKELGLDPSKVKVYTRNASA [r9_401_TrMRF]	3.05 ± 0.086 kcal/mol	4.12 ± 0.087 kcal/mol	3.75 ± 0.11 kcal/mol
SAGGSAGGSAGGMVKITFEKDPNSDKGRVTLTDPNATVTLEYDSEEEAEKAIKERFPELESAGGSAGGSAGG [r7_841_JUSTAS]	-0.364 ± 0.14 kcal/mol	0.879 ± 0.02 kcal/mol	0.435 ± 0.088 kcal/mol
SAGMTFPPGMTIEELKELLKKLGIKEVTVTYDKETNTVTVTVTVEGKTITITVTLPAPPVVVKEEGEEKSAG [r5_899_TrROS_Hall]	1.77 ± 0.059 kcal/mol	3 ± 0.1 kcal/mol	2.53 ± 0.17 kcal/mol
SRKISIWIPPDDPMMTPEEIANKLAQQGYPVEIDDVEWNPENGWVVITVEIEEPNGEPIADIEVWIPWNDSA [r9_879_TrROS]	1.83 ± 0.098 kcal/mol	1.6 ± 0.057 kcal/mol	1.65 ± 0.19 kcal/mol
SAGGSAGGSAGPPNIKMEPETRTYVLPGGWAIRVSIMKIKPPDGKPLIMAMEEIIPPDDPSAGGSAGGSAGG [r17_312_TrROS]	0.958 ± 0.1 kcal/mol	1.27 ± 0.23 kcal/mol	1.27 ± 0.31 kcal/mol
SAGGSAGGSAGPNMVPIGKLTIEIRNPDNGNPLRIRIDLYVVPAPDGWMIALRILDIEPPSAGGSAGGSAGG [r11_113_TrROS]	2.45 ± 0.13 kcal/mol	4.15 ± 0.21 kcal/mol	3.7 ± 0.26 kcal/mol
SAGGSAGGSSGPTLTIRYSILVSDSDGNWYALVFEARIYPNGDVEIRYRLYSYKDIPPGASPTSAGGSAGGS [r12_38_TrMRF]	4.12 ± 0.16 kcal/mol	4.85 ± 0.093 kcal/mol	4.7 ± 0.067 kcal/mol
SAGGSAMKPDDYVVIKIEIENMSEEEIAKKLADELKKLFPDVEVKVTVEKEEDGRYRVTIEVVLKKSAGGSA [r15_916_TrROS_Hall]	1.83 ± 0.056 kcal/mol	3.34 ± 0.15 kcal/mol	2.83 ± 0.26 kcal/mol
SAGGSADNTDVKTEVVGFRLPGYEGLNFLINIQPKDKPKTIFASEAELPLFEEAGIPVVFTSSLPLSAGGSA [r15_783_TrMRF]	-0.15 ± 0.29 kcal/mol	-0.0437 ± 0.43 kcal/mol	-0.131 ± 0.24 kcal/mol
SAGMTEEELKKLKEKFPNLKIEPVKTITIKVEPNASVEEIAKKLKELLNIDKVEIEVNEETGEITIRIYSAG [r5_694_TrROS_Hall]	2.98 ± 0.15 kcal/mol	4.07 ± 0.16 kcal/mol	3.69 ± 0.23 kcal/mol
SAGGSAEVTFTLPDGTPFSGEVTRFPDSIRVTLTVGSTPASFEMDPSTNLITGNIPGRPLTVSLGLSAGGSA [r2_194_JUSTAS]	1.17 ± 0.03 kcal/mol	1.11 ± 0.1 kcal/mol	1.18 ± 0.053 kcal/mol
SAGPVLLELESPSGGRYRIALPPNVTEIRRVGDRFIIRLPDGFSLVIEVDEDEPPSTLNDIKILAVIPSAGG [r19_274_TrMRF]	2.19 ± 0.03 kcal/mol	2.41 ± 0.045 kcal/mol	2.38 ± 0.043 kcal/mol
SAGGSAGGSAPPVVRVTVPLPDGSVLEVEYFPDTGLVRVTLVDADGTPTTVTLPAAEVLALFSAGGSAGGSA [r18_219_TrMRF]	2.04 ± 0.042 kcal/mol	3.026 ± 0.019 kcal/mol	2.73 ± 0.045 kcal/mol
SAGGSAGGSDPLVSFPLEVELPGGEKVELHFIPGPRLVIARFPDRPVLFYTDGDGVITRVDPISAGGSAGGS [r12_47_TrMRF]	0.337 ± 0.059 kcal/mol	-0.362 ± 0.11 kcal/mol	0.0465 ± 0.064 kcal/mol

Sequence	folding stability dG unfold [1]	folding stability dG unfold [2]	folding stability dG unfold [3]
SAGKIIKFKTKANENASITVPEENKILKIKVYKPNGTLLDEYEVEVKPNKTLVLNIPDDNLYVVVEPIPSAG [r5_797_TrMRF]	0.56 ± 0.025 kcal/mol	1.17 ± 0.1 kcal/mol	0.975 ± 0.057 kcal/mol
SAGGSAGGSAEEKVFVKLYLNPNEPPTIDLEFFFEDGRVVRLRLDLATGTLNDIDPRPLDFSAGGSAGGSAG [r3_299_TrMRF]	2.74 ± 0.082 kcal/mol	2.97 ± 0.046 kcal/mol	2.8 ± 0.12 kcal/mol
SAGGPKITIMWPEGMPPEELENFLKKLNPNYKVEYRPMPPEDMKDMPPGDVVISIPFDGRYWYLRIKPSAGG [r13_649_TrROS]	1.65 ± 0.048 kcal/mol	1.99 ± 0.095 kcal/mol	1.88 ± 0.081 kcal/mol
SAGGSAGGSAGGMLKIKVYRFDKNGKLVEEEEIELPENVKEIVIKDEKTGKYYKVEIVDSAGGSAGGSAGGS [r10_970_TrROS_Hall]	1.25 ± 0.053 kcal/mol	2.02 ± 0.11 kcal/mol	1.76 ± 0.15 kcal/mol
SAGGSAGGSGWRPARVVRVERYRDPVNPRWYYRVEAELPDRRVTLVVPENAPVDEDGVLLIPFSAGGSAGGS [r20_49_TrMRF]	1.09 ± 0.027 kcal/mol	1.45 ± 0.042 kcal/mol	1.35 ± 0.034 kcal/mol
SPEAVAEALRKLGFDLDIERIDVEPLPDGTYRVTVTRGDKPVFTVTVTAPPPPPPVFVVRDADGTERLVRSA [r9_442_TrMRF]	0.704 ± 0.054 kcal/mol	2.4 ± 0.03 kcal/mol	1.98 ± 0.036 kcal/mol
SMPMTVEEFLEANPDVILIRLPNEKVIFINPEEEKAFVLLPETGEVLVIDATLEEVLELVPEFGAEILDESA [r9_721_TrMRF]	2 ± 0.087 kcal/mol	2.558 ± 0.025 kcal/mol	2.34 ± 0.052 kcal/mol
SMVEVLPDGTVVLAGELPPNVSIEEFLNSLPGLEIASVEFEPDPETGVTHFVFVVTPDGRVYVGSVPLGKSA [r9_238_TrMRF]	1.25 ± 0.04 kcal/mol	2.63 ± 0.041 kcal/mol	2.25 ± 0.056 kcal/mol
SAGGSAGGSAGGMYVLIKITNPKTKKEISILIKVKPGDKITFTLPNGAKVEIIELPPEESAGGSAGGSAGGS [r10_957_TrROS_Hall]	3.3 ± 0.13 kcal/mol	4.28 ± 0.068 kcal/mol	3.92 ± 0.22 kcal/mol
SAGGSAGGSAGGKPKVILLEGIKKIEVKDGKVTIEADEPVLLVIDEDGNVHIYRLPKEDLSAGGSAGGSAGG [r7_29_TrROS_Hall]	1.03 ± 0.07 kcal/mol	1.38 ± 0.099 kcal/mol	1.35 ± 0.11 kcal/mol
SAGGSHEYTHEYRIPGGYAIRIKTKWRFNPGNNNIQIEEPDIELVPLPPVPPPPVPPEDADKNGIPPDDSAG [r5_393_TrROS]	1.19 ± 0.019 kcal/mol	2.29 ± 0.12 kcal/mol	1.74 ± 0.12 kcal/mol
SAMKIEPVPDPEHGRTYYTIKFKGAEVQIWENPGQYYISIRPPGNNKQIVIPAPPNDIDDILKELGIKPSAG [r14_4_TrROS]	1.06 ± 0.032 kcal/mol	1.71 ± 0.16 kcal/mol	1.4 ± 0.17 kcal/mol
SAGGSAVPKLPTGVEVEPLAVIDPETASPEEIRALLAEHPGPLLVRPSSTGEWRVVPAEELLALLGSAGGSA [r15_904_JUSTAS]	0.984 ± 0.034 kcal/mol	1.19 ± 0.076 kcal/mol	1.1 ± 0.071 kcal/mol
SAGGAPLPLPPDVPVTLTFTEVTFSLNESGETGYTVSTTTVPVPVEPVPPVPLPVLVVWPDGSAVALLSAGG [r13_401_JUSTAS]	1.3 ± 0.067 kcal/mol	2.23 ± 0.051 kcal/mol	1.89 ± 0.059 kcal/mol
SAGGSAGGSAGGSSAKDILDELKGITFFHPNGRRYRITDVEIEPHGDGWVLSIEMEPYPSAGGSAGGSAGGS [r4_299_TrROS]	2.05 ± 0.057 kcal/mol	3.05 ± 0.034 kcal/mol	2.7 ± 0.059 kcal/mol
SAGGMKIKITEVTVTRYYYDPKTGKLKKVEKVKVLVIEVELEPGQTAEEIAAALKKLFPDLKIVVVDSAGGS [r8_30_TrROS_Hall]	4.14 ± 0.092 kcal/mol	5.33 ± 0.11 kcal/mol	5.17 ± 0.18 kcal/mol
SAGGSAGGSAGGGYTLVTVTLRSPTPTEEVVEEKYPPSVPLEEVKAKYEPLGWEVSFDLLSAGGSAGGSAGG [r7_226_JUSTAS]	0.936 ± 0.025 kcal/mol	0.422 ± 0.13 kcal/mol	0.832 ± 0.061 kcal/mol
SAGGSAGGSAGGPEKGKWKLVLVTMTIPLPPGASIPIPNGVWIYYTDGKIEIWFLMWVPDSAGGSAGGSAGG [r7_506_TrROS]	3.33 ± 0.15 kcal/mol	5.07 ± 0.11 kcal/mol	4.8 ± 0.21 kcal/mol
SAGGSAGMPDIIYKVKITVTSSGKVTTLDITLPSEEEVKKAIEELKKKGYTNIKPEIEKFLKSELGSAGGSA [r15_1015_JUSTAS]	1.15 ± 0.12 kcal/mol	2.13 ± 0.066 kcal/mol	2 ± 0.19 kcal/mol
SAGGSAGGSAGGIKIERDPNYWVIEIEIPIYMPQPDPDGEIKEPKPIAPITITILIPPGGSAGGSAGGSAGG [r7_3_TrROS]	2.09 ± 0.17 kcal/mol	2.22 ± 0.11 kcal/mol	2.21 ± 0.2 kcal/mol
SAGGSAGGSAGGKEPKKVKVYLFNENGELIGVFELEVETLEELEEAVRKLGFLAVVEPESAGGSAGGSAGGS [r10_958_TrMRF]	4.14 ± 0.096 kcal/mol	4.43 ± 0.069 kcal/mol	4.4 ± 0.077 kcal/mol
